T1: human NKp46 ECD (human)
T1 chain: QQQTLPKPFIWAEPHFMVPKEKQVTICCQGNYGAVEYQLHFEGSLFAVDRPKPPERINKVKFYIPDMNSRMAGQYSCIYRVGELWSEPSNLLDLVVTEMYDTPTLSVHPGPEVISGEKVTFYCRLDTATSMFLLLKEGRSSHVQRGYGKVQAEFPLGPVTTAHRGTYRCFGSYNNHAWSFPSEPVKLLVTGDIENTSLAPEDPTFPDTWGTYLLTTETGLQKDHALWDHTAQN

B1: ch5-13 (antibody, V domains shown)
VH: QSVEESGGRLVTPGTPLTLTCTVSGFSLSSYHMSWVRQAPGKGLEWIGYILANTDSYYANWAKGRFTISKTSTTVDLKITSPTTEDTATYFCARYDNHDAAYSTLWGPGTLVTVSS
VL: AYDMTQTPASVEVAVGGTVTIKCQASQSISTALAWYQQKPGQPPKLLIYKASTLASGVSSRFKGSGSGTQFTLTISGVEPADAATYYCQQGYSRSNVDNVFGGGTEVVVK
B2: ch3-7 (antibody, V domains shown)
VH: QSLEESGGRLVTPGTPLTLTCTVSGFSPSSYYMSWVRQAPGKGLEYIGIIFSGGSTWYASWAKGRVTISRTSTTVDLKMTSLTTEDTATYFCARGDAVGSGYWGLWGPGTLVTVSS
VL: AFELTQTPSSVEAAVGGTVTINCQASQDIYIYLAWYQQKPGQPPKLLIYSASTLASGVSSRFTGSRSGTQFTLTISDLEPADAATYYCQSYDGTSNTGFGGGTEVVVR
B3: ch6-1 (antibody, V domains shown)
VH: QSLEESGGGLVQPEGSLTLTCTASGFSFSSSAWICWVRQAPGKGLEWIGCINTVSVNAYYASWAKGRFTISKTSSTTVTLQVTSLTAADTATHFCARNPYNSLRLWGPGTLVTVSS
VL: DVVMTQTPASVSEPVGGTITINCQASENIYSSLAWYQQKPGQPPKLLMYDVSDLASGVPSRFSGSGSGTEFALTISDVQPDDAATYFCLGGYPSNNYRMAFGGGTEVVVK
B4: IP-46-3 (antibody, V domains shown)
VH: EVQLQQSGPELVKPGASVKISCKTSGYTFTEYTMHWVKQSHGKSLEWIGGISPNIGGTSYNQKFKGKATLTVDKSSSTAYMELRSLTSEDSAVYYCARRGGSFDYWGQGTTLTVSS
VL: DIVMTQSPATLSVTPGDRVSLSCRASQSISDYLHWYQQKSHESPRLLIKYASQSISGIPSRFSGSGSGSDFTLSINSVEPEDVGVYYCQNGHSFPLTFGAGTKLELK

Target: T1, human NKp46 ECD
Assay: SPR, 25C

Row | Kd | Binder
1 | 0.194 nM | B1
2 | 0.0199 nM | B2
3 | 0.0209 nM | B3
4 | 0.361 nM | B4

Reference: patent US20260297188 (published 2026)
